Patent publication US20150056134A1 (MABVAX THERAPEUTICS, published 2015)
Changes are numbered by the printed parent chain.

B1: 5B1 human anti-sLe^a monoclonal antibody (antibody, V domains shown)
VH: QVQLVESGGGSVQPGRSLRLSCEASGFTFEAYAMHWVRQPPGKGLEWVSSINWNSGRIAYADSVKGRFTISRDNARNSLYLQMNSLRLEDTAFYYCAKDIRRFSTGGAEFEYWGQGTLVTVSS
VL: QSVLTQPPSASGTPGQRVTISCSGSSSNIGSNFVYWYQQLPGTAPKLLIYRNNQRPSGVPDRFSGSRSGTSASLAISGLRSEDEADYYCAAWDDSLGGHYVFGTGTKVTVL
notes: Human IgG1/lambda; The ADCC assay used recombinant r5B1 made in CHO cells from a full-length IgG1 vector; also called EF41-5B1; EF41-5B1(G)
B2: 5H11 human anti-sLe^a monoclonal antibody (antibody, IgG1, V domains shown)
VH: QVQLLESGGGLVQPGRSLRLSCAASGFTFDEYAMHWVRQAPGKGLEWVSSVSWNSGSIGYADSVKGRFTISRDNAKNSLYLQMNSLRAEDTALYYCAKDIRTYSTGGAEFASWGQGTLVTASS
VL: B1 VL with F33Y, L40V, R67K, G97S
notes: Human IgG/lambda (IgG1), tested as hybridoma supernatant; also called EF41-5H11; EF41-5H11(G)
B3: 9H3 human anti-sLe^a monoclonal antibody (antibody, IgG1, V domains shown)
VH: EVQLLESGGGLVQPGRSLRLSCAASGFTFDDYVMHWVRQAPGKGLEWVSSISWNSGSIGYADSVKGRFIISRDNAKNSLYLQMNSLRAEDTALYYCAKDRRIRGDSGFEGDYWGQGTLVTVSS
VL: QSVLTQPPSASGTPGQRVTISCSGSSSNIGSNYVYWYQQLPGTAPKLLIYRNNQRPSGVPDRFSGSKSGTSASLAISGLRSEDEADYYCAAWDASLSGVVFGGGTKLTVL
notes: Human IgG/lambda (IgG1), tested as hybridoma supernatant; also called EF41-9H3; EF41-9H3 (G)
B4: 7E3 human anti-sLe^a monoclonal antibody (antibody, V domains shown)
VH: QVQLLESGGGVVQPGRSLRLSCAASGFTFSFYGMHWVRQAPGKGLEWVAAISYDGSNKYYADSVKGRFTISRDNSKNTLYLQMNSLRAEDTAVYYCAKRPNQFYCSDGRCYSIDYWGQGTLVTVSS
VL: not shown
notes: Human IgM/kappa, tested as hybridoma supernatant; also called EF41-7E3; EF41-7E3 (M)

target: T1, Neutral Avidin (UniProt P02701 25-152); assay: ELISA, hybridoma supernatant on NeutrAvidin-coated control wells without sLe^a
T1 construct: Control coating without captured biotinylated sLe^a; also called NAV; Neutr-Avidin
T1 sequence (P02701 25-152 limits assumed): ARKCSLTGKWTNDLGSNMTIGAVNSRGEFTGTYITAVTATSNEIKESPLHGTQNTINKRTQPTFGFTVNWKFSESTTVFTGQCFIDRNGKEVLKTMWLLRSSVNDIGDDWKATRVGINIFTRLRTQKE

OD (490 nm)	Binder
0.05 OD (490 nm)	B1
0.05 OD (490 nm)	B2
0.05 OD (490 nm)	B3
0.05 OD (490 nm)	B4
